Results taken from patent US20030198640A1 (Human Genome Sciences, published 2003).

Columns and labels:
Test in all cases: flow cytometry on transiently transfected cells
[1] = target: T1, BCMA on transiently transfected cells (UniProt Q02223 1-184, limits assumed)
T1 construct: whole, on cells
T1 sequence (looked up): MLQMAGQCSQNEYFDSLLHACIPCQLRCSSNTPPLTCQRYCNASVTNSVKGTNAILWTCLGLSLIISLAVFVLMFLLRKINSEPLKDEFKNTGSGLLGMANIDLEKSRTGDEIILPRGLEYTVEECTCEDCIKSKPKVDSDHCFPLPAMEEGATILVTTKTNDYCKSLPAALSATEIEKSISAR
Description: (§1) One million cells, in 0.1 ml of FACS buffer (PBS, 0.1% BSA, 0.1% NaN₃), were incubated with 0.1-1 microgram of protein or antibody at RT for 15 min. The cells were washed with 3 ml of FACS buffer, reacted with biotinylated primary antibody, and stained with PE-conjugated secondary antibody at RT for 15 min. Cells were then washed again, resuspended in 0.5 microgram/ml of propidium iodide, and live cells were gated and analyzed on a FACScan using the CellQuest software (BD Biosciences).

[2] = target: T2, AITR on transiently transfected cells (UniProt Q9Y5U5 26-241, limits assumed)
T2 construct: whole, on cells
T2 sequence (looked up): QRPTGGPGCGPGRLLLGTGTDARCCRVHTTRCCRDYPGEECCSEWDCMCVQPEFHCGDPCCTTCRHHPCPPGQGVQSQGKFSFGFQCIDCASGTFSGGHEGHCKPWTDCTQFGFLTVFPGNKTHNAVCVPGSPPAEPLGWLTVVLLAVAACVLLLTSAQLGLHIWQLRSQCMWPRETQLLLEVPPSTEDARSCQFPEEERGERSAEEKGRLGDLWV
Description: as §1

[3] = target: T3, DR6 on transiently transfected cells (UniProt O75509 42-655, limits assumed)
T3 construct: whole, on cells
T3 sequence (looked up): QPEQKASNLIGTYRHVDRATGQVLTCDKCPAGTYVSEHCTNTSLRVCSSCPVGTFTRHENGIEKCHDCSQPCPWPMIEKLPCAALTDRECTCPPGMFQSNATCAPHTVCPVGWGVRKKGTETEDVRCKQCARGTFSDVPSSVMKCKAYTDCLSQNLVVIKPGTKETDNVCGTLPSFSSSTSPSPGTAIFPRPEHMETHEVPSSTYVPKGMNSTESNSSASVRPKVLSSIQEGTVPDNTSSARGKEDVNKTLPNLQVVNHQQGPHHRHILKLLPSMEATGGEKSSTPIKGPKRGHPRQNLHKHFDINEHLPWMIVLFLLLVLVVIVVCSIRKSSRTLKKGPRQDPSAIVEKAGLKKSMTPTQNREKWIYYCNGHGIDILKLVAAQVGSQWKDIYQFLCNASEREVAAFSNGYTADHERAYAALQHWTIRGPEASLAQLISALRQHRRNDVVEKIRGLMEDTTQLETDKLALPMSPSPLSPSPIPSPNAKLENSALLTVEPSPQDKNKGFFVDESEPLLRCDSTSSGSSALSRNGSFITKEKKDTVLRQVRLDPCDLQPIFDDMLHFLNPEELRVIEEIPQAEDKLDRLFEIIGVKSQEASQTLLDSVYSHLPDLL
Description: as §1

[4] = target: T4, RANK on transiently transfected cells (UniProt Q9Y6Q6 30-616, limits assumed)
T4 construct: whole, on cells
T4 sequence (looked up): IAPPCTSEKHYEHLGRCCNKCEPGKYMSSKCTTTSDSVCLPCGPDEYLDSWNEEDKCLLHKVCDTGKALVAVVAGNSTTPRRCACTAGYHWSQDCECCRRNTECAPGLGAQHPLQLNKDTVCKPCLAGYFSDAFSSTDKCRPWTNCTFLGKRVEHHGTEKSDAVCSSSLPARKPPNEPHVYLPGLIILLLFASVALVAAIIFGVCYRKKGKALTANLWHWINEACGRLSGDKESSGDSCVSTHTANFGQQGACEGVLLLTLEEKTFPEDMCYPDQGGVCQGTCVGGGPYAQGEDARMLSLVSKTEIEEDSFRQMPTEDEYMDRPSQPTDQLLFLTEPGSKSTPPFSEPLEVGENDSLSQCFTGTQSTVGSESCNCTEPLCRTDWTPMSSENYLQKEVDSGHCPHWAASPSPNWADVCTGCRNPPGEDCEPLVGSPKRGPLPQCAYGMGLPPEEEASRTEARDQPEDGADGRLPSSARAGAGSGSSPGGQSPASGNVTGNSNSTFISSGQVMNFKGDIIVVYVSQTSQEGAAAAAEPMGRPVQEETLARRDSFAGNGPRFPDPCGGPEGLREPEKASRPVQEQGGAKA
Description: as §1

[5] = target: T5, DcR1 on transiently transfected cells (UniProt O14798 26-236, limits assumed)
T5 construct: whole, on cells
T5 sequence (looked up): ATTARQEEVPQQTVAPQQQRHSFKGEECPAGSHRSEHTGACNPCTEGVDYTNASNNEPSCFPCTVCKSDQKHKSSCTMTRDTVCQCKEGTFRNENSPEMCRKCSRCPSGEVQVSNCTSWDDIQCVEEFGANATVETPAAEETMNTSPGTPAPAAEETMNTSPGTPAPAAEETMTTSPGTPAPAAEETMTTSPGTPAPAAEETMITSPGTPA
Description: as §1

[6] = target: T6, DR5 on transiently transfected cells (UniProt O14763 56-440, limits assumed)
T6 construct: whole, on cells
Description: as §1

[7] = target: T7, DcR2 on transiently transfected cells (UniProt Q9UBN6 56-386, limits assumed)
T7 construct: whole, on cells
T7 sequence (looked up): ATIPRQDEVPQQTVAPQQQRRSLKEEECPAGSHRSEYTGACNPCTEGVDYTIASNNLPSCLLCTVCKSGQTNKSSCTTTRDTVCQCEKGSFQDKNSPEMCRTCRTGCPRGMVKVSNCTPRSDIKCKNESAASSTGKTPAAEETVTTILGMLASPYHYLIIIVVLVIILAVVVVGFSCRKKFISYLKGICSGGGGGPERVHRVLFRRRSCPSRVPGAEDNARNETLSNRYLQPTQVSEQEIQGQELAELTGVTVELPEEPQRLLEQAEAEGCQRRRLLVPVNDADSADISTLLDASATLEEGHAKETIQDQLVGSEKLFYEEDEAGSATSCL
Description: as §1

Measured: binding result

B1: FLAG-tagged soluble form of TNF-gamma-beta (aa 72-251) (ligand)
chain: LKGQEFAPSHQQVYAPLRADGDKPRAHLTVVRQTPTQHFKNQFPALHWEHELGLAFTKNRMNYTNKFLLIPESGDYFIYSQVTFRGMTSECSEIRQAGRPNKPDSITVVITKVTDSYPEPTQLLMGTKSVCEVGSNWFQPIYLGAMFSLQEGDKLMVNVSDISLVDYTKEDKTFFGAFLL
notes: also called FLAG-TL1β; FLAG-TNF-gamma-beta; not shown: FLAG tag of the pFLAG-CMV-1 vector at the amino terminus
no binding: [1] | [2] | [3] | [4] | [5] | [6] | [7]
